Measurements: paper PMC10955041, “Reverse-engineering the anti-MUC1 antibody 139H2 by mass spectrometry–based de novo sequencing” (Life Science Alliance, 2024)
Ends that are not written are not given here. * marks the point of attachment. Biotin = O=C1N[C@H]2[C@H](CS[C@H]2CCCCC(=O)*)N1

T1: synthetic MUC1 epitope peptide APDTRPAPG (synthetic; human MUC1 VNTR sequence)
T1 construct: also called MUC1 peptide; source: synthetic peptide, bought: GenScript
T1 chain: APDTRPAPG

T2: N-terminally biotinylated synthetic MUC1 peptide biotin-GGS-APDTRPAPG (synthetic; human MUC1 VNTR sequence)
T2 construct: short peptide linker for immobilization to the SPR substrate; occurs in every repeat; also called biotinylated MUC1 peptide; surface-immobilized MUC1 peptide; source: synthetic peptide, bought: GenScript
T2 chain: Biotin-GGSAPDTRPAPG


Assays:
Conditions in all cases: both partners purified
[1] = biological target: T3, MUC1 reporter construct, Tn glycans (Homo sapiens (by repeat sequence), UniProt P15941, O-glycans of Tn structure; 5 O-glycosylation sites); assay: far-Western, overlay or dot blot; immunoblot of MUC1 reporter constructs (10 ng per well, boiled in Laemmli buffer, 10% SDS gel, PVDF); 139H2 antibodies 1:1,000 in TSMT with 1% BSA, 1 h at RT; band intensities compared with a His-tag blot
T3 construct: also called MUC1 Tn fragment; MUC1-Tn; source: engineered HEK293 cells, gift from Christian Büll (Copenhagen Center for Glycomics), in PBS
T3 sequence (P15941 whole entry, looked up, the tested form may be a part): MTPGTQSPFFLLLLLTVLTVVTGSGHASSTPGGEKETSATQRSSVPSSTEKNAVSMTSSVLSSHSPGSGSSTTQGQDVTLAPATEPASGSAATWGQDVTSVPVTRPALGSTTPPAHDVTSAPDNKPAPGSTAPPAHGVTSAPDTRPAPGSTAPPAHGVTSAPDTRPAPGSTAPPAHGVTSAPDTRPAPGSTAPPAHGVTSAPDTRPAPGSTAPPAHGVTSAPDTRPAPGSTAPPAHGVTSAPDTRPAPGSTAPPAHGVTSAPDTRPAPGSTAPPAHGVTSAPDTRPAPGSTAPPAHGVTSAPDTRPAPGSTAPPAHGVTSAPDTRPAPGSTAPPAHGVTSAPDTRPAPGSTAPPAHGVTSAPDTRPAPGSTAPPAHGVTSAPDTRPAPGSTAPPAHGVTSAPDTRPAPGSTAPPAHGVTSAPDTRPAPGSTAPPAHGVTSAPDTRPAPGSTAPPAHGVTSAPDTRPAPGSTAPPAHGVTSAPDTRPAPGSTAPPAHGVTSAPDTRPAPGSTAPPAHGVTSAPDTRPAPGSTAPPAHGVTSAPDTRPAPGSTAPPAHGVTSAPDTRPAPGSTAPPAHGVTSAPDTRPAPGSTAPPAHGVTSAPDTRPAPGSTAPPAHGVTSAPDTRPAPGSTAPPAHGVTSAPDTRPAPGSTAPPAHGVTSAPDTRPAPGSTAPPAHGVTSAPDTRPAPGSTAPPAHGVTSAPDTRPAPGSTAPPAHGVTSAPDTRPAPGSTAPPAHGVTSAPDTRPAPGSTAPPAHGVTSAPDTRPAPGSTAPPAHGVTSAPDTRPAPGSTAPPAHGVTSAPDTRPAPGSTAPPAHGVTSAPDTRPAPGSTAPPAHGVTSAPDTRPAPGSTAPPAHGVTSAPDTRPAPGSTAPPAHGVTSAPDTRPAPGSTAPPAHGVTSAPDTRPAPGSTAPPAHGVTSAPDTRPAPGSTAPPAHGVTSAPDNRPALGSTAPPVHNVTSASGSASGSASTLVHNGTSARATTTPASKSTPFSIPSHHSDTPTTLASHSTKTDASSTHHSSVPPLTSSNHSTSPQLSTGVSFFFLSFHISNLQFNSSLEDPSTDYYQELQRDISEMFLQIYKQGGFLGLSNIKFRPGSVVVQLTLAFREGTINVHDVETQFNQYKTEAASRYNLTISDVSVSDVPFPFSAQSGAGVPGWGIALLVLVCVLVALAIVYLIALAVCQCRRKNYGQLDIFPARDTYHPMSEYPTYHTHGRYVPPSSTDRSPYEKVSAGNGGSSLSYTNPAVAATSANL

[2] = biological target: T4, MUC1 reporter construct, WT Core 2/ST glycans (Homo sapiens (by repeat sequence), UniProt P15941, O-glycans of WT Core 2/ST structure; 5 O-glycosylation sites); assay: as above
T4 construct: also called MUC1 WT fragment; MUC1-WT; source: engineered HEK293 cells, gift from Christian Büll (Copenhagen Center for Glycomics), in PBS
T4 sequence (P15941 whole entry, looked up, the tested form may be a part): as above

[3] = biological target: T5, MUC1 reporter construct, DiST glycans (Homo sapiens (by repeat sequence), UniProt P15941, O-glycans of DiST structure; 5 O-glycosylation sites); assay: as above
T5 construct: also called MUC1 DiST fragment; MUC1-DiST; source: engineered HEK293 cells, gift from Christian Büll (Copenhagen Center for Glycomics), in PBS
T5 sequence (P15941 whole entry, looked up, the tested form may be a part): as above

[4] = biological target: T6, MUC1 reporter construct, STn glycans (Homo sapiens (by repeat sequence), UniProt P15941, O-glycans of STn structure; 5 O-glycosylation sites); assay: as above
T6 construct: also called MUC1 STn fragment; MUC1-STn; source: engineered HEK293 cells, gift from Christian Büll (Copenhagen Center for Glycomics), in PBS
T6 sequence (P15941 whole entry, looked up, the tested form may be a part): as above

[5] = biological target: T1, synthetic MUC1 epitope peptide APDTRPAPG; assay: crystal structure; Fab and peptide mixed 1:2.5, 3.8 mg/ml in 50 mM Tris pH 8.0, 150 mM NaCl; sitting drop at 20°C; 2.5 Å
[6] = biological target: T2, N-terminally biotinylated synthetic …; assay: SPR; biotinylated peptide immobilised on a streptavidin chip (P-Strep), IBIS-MX96; 150 mM NaCl, 25 mM Hepes, 0.005% Tween-20; Fab as analyte, 10 twofold dilutions from 7.88 uM, kinetic titration without regeneration, 6-min association; equilibrium data fitted to a one-site (Langmuir) model

Binder	binding result [1]	binding result [2]	binding result [3]	binding result [4]	binding result [5]	Kd [6] [µM]
hybridoma-derived 139H2 IgG (antibody, V domains shown, as the heavy-chain variable domain of m1 (IGHV1-53); as the light-chain variable domain of m1 (IGKV8-30); mouse kappa light-chain constant region; Mouse IgG1, kappa; also called original hybridoma-derived 139H2; 139H2 WT; source: hybridoma culture supernatant (gift, NKI), purified (Protein G Sepharose); copies: 2 + 2) VH: QVQLQQSGAELVKPGASVKLSCKASGYTFTNYYMYWVLQRPGQGLEWIGEINPSNGGTTFNEKFKNKATLTVDKSSSTAYMQLNSLTSEDSAVYYCTRSRYGNYVNYGMDYWGQGTSVTVSS VL: DIVMSQSPSSLAVSVGEKVTMSCKSSQSLLYSNTQKNYLAWYQQKPGQSPKLLIYWASTRESGVPDRFTGSGSGTDFTLTISSVKAENLAVYYCQQYYRYPPTFGGGTKLELK	binds	binds	binds	binds	–	–
recombinant (reverse-engineered) 139H2 IgG (antibody, V domains shown, also in PDB 8P6I; standard mouse Ig gamma-1 (IGHG1) constant region, linker and Fc region, UniProt P01868.1; mouse kappa light-chain constant region (kappa light-chain backbone); Mouse IgG1, kappa; also called synthetic recombinant 139H2; recombinant 139H2; source: HEK293 cells (ImmunoPrecise Antibodies), culture supernatant, purified (HisTrap Excel); copies: 2 + 2) VH: QVQLQQSGAELVKPGASVKLSCKASGYTFTNYYMYWVLQRPGQGLEWIGEINPSNGGTTFNEKFKNKATLTVDKSSSTAYMQLNSLTSEDSAVYYCTRSRYGNYVNYGMDYWGQGTSVTVSS VL: DIVMSQSPSSLAVSVGEKVTMSCKSSQSLLYSNTQKNYLAWYQQKPGQSPKLLIYWASTRESGVPDRFTGSGSGTDFTLTISSVKAENLAVYYCQQYYRYPPTFGGGTKLELK	binds	binds	binds	binds	–	–
recombinant 139H2 Fab fragment (Fab, V domains shown, as the heavy-chain variable domain of m1 (IGHV1-53); mouse Ig gamma-1 (IGHG1) Fab constant region; as the light-chain variable domain of m1 (IGKV8-30); mouse kappa light-chain constant region, as in m1; also called monovalent Fab fragment; anti-MUC1 Fab; source: HEK293 cells (ImmunoPrecise Antibodies), culture supernatant, purified (HisTrap Excel, Superdex 200 SEC)) VH: QVQLQQSGAELVKPGASVKLSCKASGYTFTNYYMYWVLQRPGQGLEWIGEINPSNGGTTFNEKFKNKATLTVDKSSSTAYMQLNSLTSEDSAVYYCTRSRYGNYVNYGMDYWGQGTSVTVSS VL: DIVMSQSPSSLAVSVGEKVTMSCKSSQSLLYSNTQKNYLAWYQQKPGQSPKLLIYWASTRESGVPDRFTGSGSGTDFTLTISSVKAENLAVYYCQQYYRYPPTFGGGTKLELK	–	–	–	–	binds	4.5
